Measurements published in article PMC10883268.

Experiments:
[1] = target: SecY_(A103C-V353C)EG (E. coli) (UniProt P0AGA2)
[2] = target: SecY_(A103C-V353C)EG (E. coli) (UniProt P0AGA2); remark: listed apart in the source

SecA, sequence (P10408 whole entry): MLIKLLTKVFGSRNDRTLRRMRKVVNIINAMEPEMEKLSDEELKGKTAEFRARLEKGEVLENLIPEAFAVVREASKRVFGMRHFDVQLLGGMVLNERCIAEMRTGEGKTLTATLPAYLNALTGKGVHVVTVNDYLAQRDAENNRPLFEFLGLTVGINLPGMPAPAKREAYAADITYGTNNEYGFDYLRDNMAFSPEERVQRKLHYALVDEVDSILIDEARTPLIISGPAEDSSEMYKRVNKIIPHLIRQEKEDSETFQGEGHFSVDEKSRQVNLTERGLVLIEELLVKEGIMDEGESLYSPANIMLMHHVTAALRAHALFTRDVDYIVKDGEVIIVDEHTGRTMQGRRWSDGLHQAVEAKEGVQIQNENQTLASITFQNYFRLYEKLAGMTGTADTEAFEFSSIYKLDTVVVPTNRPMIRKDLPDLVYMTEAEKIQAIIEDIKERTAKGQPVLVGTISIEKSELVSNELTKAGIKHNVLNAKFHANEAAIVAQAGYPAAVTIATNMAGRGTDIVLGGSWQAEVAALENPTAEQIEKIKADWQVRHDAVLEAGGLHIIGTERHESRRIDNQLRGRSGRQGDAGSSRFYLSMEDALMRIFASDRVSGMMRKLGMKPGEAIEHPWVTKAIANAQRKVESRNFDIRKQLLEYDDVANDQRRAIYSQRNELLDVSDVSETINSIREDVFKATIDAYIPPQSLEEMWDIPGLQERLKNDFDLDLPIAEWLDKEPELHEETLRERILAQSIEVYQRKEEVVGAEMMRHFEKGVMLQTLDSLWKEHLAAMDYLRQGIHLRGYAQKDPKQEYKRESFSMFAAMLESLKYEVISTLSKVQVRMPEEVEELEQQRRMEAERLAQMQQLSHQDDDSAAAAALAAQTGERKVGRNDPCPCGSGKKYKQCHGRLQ

“SecA (from UniProt P10408 1-901) (enzyme)” gave a smFRET between dyes on SecY C103 and C353 in proteoliposomes: balance of open and closed states with 1 µM SecA, no nucleotide, no SS, against SecYEG alone [1] of 2 fold and a smFRET between dyes on SecY C103 and C353 in proteoliposomes: percent of time in the closed state with SecA, no nucleotide (~81% for SecYEG alone) [2] of over 91%.
